Patent US20190062727A1 (University of Texas, published 2019)

Target: T1, Rlip (RALBP1, RLIP76), endogenous protein of mouse embryonic fibroblasts and mouse liver (mouse, UniProt Q62172 2-648)
T1 construct: Endogenous protein, detected with a rabbit monoclonal anti-Rlip antibody from Abcam
T1 sequence (looked up): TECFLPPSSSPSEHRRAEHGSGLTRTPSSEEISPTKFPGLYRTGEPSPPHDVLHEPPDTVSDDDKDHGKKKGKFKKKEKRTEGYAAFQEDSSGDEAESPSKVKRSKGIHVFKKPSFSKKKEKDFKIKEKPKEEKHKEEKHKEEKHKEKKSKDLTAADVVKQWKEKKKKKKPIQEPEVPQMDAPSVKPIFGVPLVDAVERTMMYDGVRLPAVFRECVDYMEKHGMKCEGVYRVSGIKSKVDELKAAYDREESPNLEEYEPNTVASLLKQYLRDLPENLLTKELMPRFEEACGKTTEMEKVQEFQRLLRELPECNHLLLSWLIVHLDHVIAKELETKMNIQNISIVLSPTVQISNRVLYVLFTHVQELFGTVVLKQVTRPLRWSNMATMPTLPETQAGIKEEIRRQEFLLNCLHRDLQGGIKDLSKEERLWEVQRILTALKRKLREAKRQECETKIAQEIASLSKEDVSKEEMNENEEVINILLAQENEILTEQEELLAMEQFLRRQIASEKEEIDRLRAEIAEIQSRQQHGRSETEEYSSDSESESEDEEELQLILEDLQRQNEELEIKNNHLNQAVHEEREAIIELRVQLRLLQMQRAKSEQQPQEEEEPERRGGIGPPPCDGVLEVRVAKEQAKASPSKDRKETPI
Experiment: co-immunoprecipitation from whole-cell homogenates of wt, p53+/- and p53-/- MEFs
Excerpt: Binding interactions of HSF1, Rlip and p53 in wt, p53^{-/-} MEFs without or with Rlip depletion using R508 were studied by co-immunoprecipitation using protein A/G PLUS-Agarose immunoprecipitation reagent sc-2003 from Santa Cruz Biotechnology (Columbus, Ohio) according to the manufacture's protocol using whole-cell homogenates of wild-type, p53^{-/-} or p53^{+/-} MEFs. Primary anti-HSF1 rabbit monoclonal antibody (D3L8I) and anti-p53 mouse monoclonal antibody was from Cell Signaling Technology (Danvers, Mass.), and rabbit monoclonal anti-Rlip antibody was from Abcam (Cambridge, Mass.). The specificity of primary antibodies was tested using MEFs from either p53^{-/-} or Rlip^{-/-} MEFs. The corresponding probes of anti-rabbit PLUS and anti-mouse MINUS were provided in the kit and used per the manufacturer's instructions. wt, p53^{-/-} and […]. […] Slides were visualized by fluorescence microscopy using an Olympus BX50 microscope, and photomicrographs were taken using a 40× objective.
The 4-hydroxynonenal (4HNE) and8-OH-deoxyguanosine (8OHdG) levels were measured in liver homogenate using Oxiselect kits from Cell Biolabs, San Diego, Calif. by procedures described in Methods and the results are shown in FIG. 2A and FIG. 2B, respectively. […]

B1: p53 (TP53), endogenous protein of mouse embryonic fibroblasts and mouse liver (other, UniProt P02340 1-390, looked up)
chain: MTAMEESQSDISLELPLSQETFSGLWKLLPPEDILPSPHCMDDLLLPQDVEEFFEGPSEALRVSGAPAAQDPVTETPGPVAPAPATPWPLSSFVPSQKTYQGNYGFHLGFLQSGTAKSVMCTYSPPLNKLFCQLAKTCPVQLWVSATPPAGSRVRAMAIYKKSQHMTEVVRRCPHHERCSDGDGLAPPQHLIRVEGNLYPEYLEDRQTFRHSVVVPYEPPEAGSEYTTIHYKYMCNSSCMGGMNRRPILTIITLEDSSGNLLGRDSFEVRVCACPGRDRRTEEENFRKKEVLCPELPPGSAKRALPTCTSASPPQKKKPLDGEYFTLKIRGRKRFEMFRELNEALELKDAHATEESGDSRAHSSYLKTKKGQSTSRHKKTMVKKVGPDSD
notes: Endogenous protein, detected with a mouse monoclonal anti-p53 antibody from Cell Signaling Technology
B1: binds.
